First the molecules themselves.
B1: Shank3 N-terminus (SPN + Ank domains, residues 1-339), WT, mRFP-tagged [rat] / δ-catenin, GFP-tagged [mouse] (parent complex)
chain 1: MDGPGASAVVVRVGIPDLQQTKCLRLDPTAPVWAAKQRVLCALNHSLQDALNYGLFQPPSRGRAGKFLDEERLLQDYPPNLDTPLPYLEFRYKRRVYAQNLIDDKQFAKLHTKANLKKFMDYVQLHSTDKVARLLDKGLDPNFHDPDSGECPLSLAAQLDNATDLLKVLRNGGAHLDFRTRDGLTAVHCATRQRNAGALTTLLDLGASPDYKDSRGLTPLYHSALGGGDALCCELLLHDHAQLGTTDENGWQEIHQACRFGHVQHLEHLLFYGANMGAQNASGNTALHICALYNQESCARVLLFRGANKDVRNYNSQTAFQVAIIAGNFELAEVIKTHK
chain 2: MFARKQSGAAPFGAMPVPDQPPSASEKNSSLSPGLNTSNGDGSETETTSAILASVKEQELQFERLTRELEAERQIVASQLERCKLGSETGSMSSISSAGEQFHWQTQDGQKDIEDELTTGLELVDSCIRSLQESGILDPQDYSTSERPSLLSQSALQLNSKPEGSFQYPASYHSNQTLALGDTAPSQLPARSTQARAAGQSFSQGTTGRAGHLAGSEPAPPPPPPREPFAPSLGSAFHLPDAPPAAAALYYSSSTLPAPPRGGSPLTTTQGGSPTKLQRGGSAPEGAAYAAPRGSSPKQSPSRLAKSYSTSSPINIVVSSAGLSPIRVTSPPTVQSTISSSPIHQLSSTIGTYATLSPTKRLVHASEQYSKHSQELYATATLQRPGSLAAGSRASYSSQHGHLAPELRALQSPEHHIDPIYEDRVYQKPPMRSLSQSQGDPLPPAHTGTFRTSTAPSSPGVDSVPLQRTGSQHGPQNAAAATFQRASYAAGPASNYADPYRQLQYCASVDSPYSKSGPALPPEGTLARSPSIDSIQKDPREFGWRDPELPEVIQMLQHQFPSVQSNAAAYLQHLCFGDNKIKAEIRRQGGIQLLVDLLDHRMTEVHRSACGALRNLVYGKANDDNKIALKNCGGIPALVRLLRKTTDLEIRELVTGVLWNLSSCDALKMPIIQDALAVLTNAVIIPHSGWENSPLQDDRKIQLHSSQVLRNATGCLRNVSSAGEEARRRMRECDGLTDALLYVIQSALGSSEIDSKTVENCVCILRNLSYRLAAETSQGQHMGTDELDGLLCGETNGKDTESSGCWGKKKKKKKSQDQWDGVGPLPDCAEPPKGIQMLWHPSIVKPYLTLLSECSNPDTLEGAAGALQNLAAGSWKGWAEDVAGMAYALRSLPEGAPCLPQWSVYIRAAVRKEKGLPILVELLRIDNDRVVCAVATALRNMALDVRNKELIGKYAMRDLVHRLPGGNNSNNSGSKAMSDDTVTAVCCTLHEVITKNMENAKALRDAGGIEKLVGISKSKGDKHSPKVVKAASQVLNSMWQYRDLRSLYKKDGWSQYHFVASSSTIERDRQRPYSSSRTPSISPVRVSPNNRSASAPASPREMISLKERKTDYESAGNNATYHGTKGEHTSRKDTMTAQNTGVSTLYRNSYGAPAEDIKQNQVSTQPVPQEPSRKDYETYQPFPNSTRNYDESFFEDQVHHRPPASEYTMHLGLKSTGNYVDFYSAARPYSELNYETSHYPASPDSWV

The variants in the assay derive from B1. Description: co-immunoprecipitation (mRFP-trap) with Western blot quantification; coexpressed in 293 T cells; three independent experiments; read off a plot. For orientation: In western blotting, separated proteins are transferred to a membrane and probed.
Regarding chain 1 MDGPGASAVVVRVGIPDLQQTKCLRLDPTAPVWAAKQRVLCALNHSLQDALNYGLFQPPSRGRAGKFLDEERLLQDYPPNLDTPLPYLEFRYKRRVYAQNLIDDKPFAKLHTKANLKKFMDYVQLHSTDKVARLLDKGLDPNFHDPDSGECPLSLAAQLDNATDLLKVLRNGGAHLDFRTRDGLTAVHCATRQRNAGALTTLLDLGASPDYKDSRGLTPLYHSALGGGDALCCELLLHDHAQLGTTDENGWQEIHQACRFGHVQHLEHLLFYGANMGAQNASGNTALHICALYNQESCARVLLFRGANKDVRNYNSQTAFQVAIIAGNFELAEVIKTHK [chain 1 Q106P], the response is roughly 0.07.
On to chain 1 MDGPGASAVVVRVGIPDLQQTKCLRLDPTAPVWAAKQRVLCALNHSLQDALNYGLFQPPSRGRAGKFLDEERLLQDYPPNLDTPLPYLEFRYKRRVYAQNLIDDKQFAKLHTKANLKKFMDYVQLHSTDKVARLLDKGLDPNFHDPDSGECPLSLAAQLDNATDLLKVLRNGGAHLDFRTRDGLTAVHCATRQRNAGALTTLLDLGASPDYKDSRGLTPLYHSALGGGDALCCELLLHDHAQLGTTDENGWQEIHHACRFGHVQHLEHLLFYGANMGAQNASGNTALHICALYNQESCARVLLFRGANKDVRNYNSQTAFQVAIIAGNFELAEVIKTHK [chain 1 Q256H], for which the response was roughly 0.05.
In the case of chain 1 MDGPGASAVVVRVGIPDLQQTKCLRLDPTAPVWAAKQRVLCALNHSLQDALNYGLFQPPSRGRAGKFLGEERLLQDYPPNLDTPLPYLEFRYKRRVYAQNLIDDKQFAKLHTKANLKKFMDYVQLHSTDKVARLLDKGLDPNFHDPDSGECPLSLAAQLDNATDLLKVLRNGGAHLDFRTRDGLTAVHCATRQRNAGALTTLLDLGASPDYKDSRGLTPLYHSALGGGDALCCELLLHDHAQLGTTDENGWQEIHQACRFGHVQHLEHLLFYGANMGAQNASGNTALHICALYNQESCARVLLFRGANKDVRNYNSQTAFQVAIIAGNFELAEVIKTHK [chain 1 D69G], the response is roughly 0.13.
For chain 1 MDGPGASAVVVRVGIPDLQQTKCLRLDPTAPVWAAKQRVLCALNHSLQDALNYGLFQPPSRGRAGKFLDEERLLQDYPPNLDTPLPYLEFRYKRRVYAQNLIDDKQFAKLHTKANLKKFMDYVQLHSTDKVARLLDKGLDPNFHDPDSGECPLSLAAQLDNATDLLKVLRNGGAHLDFRTRDGLTAVHCATRQRNAGALTTLLDLGASPDYKDSRGLTPLYHSALGGGDALCCELLLHDHAQLGTTDENGWQEIHQACRFGHVQHLEHLLFCGANMGAQNASGNTALHICALYNQESCARVLLFRGANKDVRNYNSQTAFQVAIIAGNFELAEVIKTHK [chain 1 Y272C], the response is roughly 0.068.
With chain 1 MDGPGASAVVVRVGIPDLQQTKCLRLDPTAPVWAAKQRVLCALNHSLQDALNYGLFQPPSRGRAGKFLDEERLLQDYPPNLDTPLPYLEFRYKRRVYAQNLIDDKQFAKLHTKANLKKFMDYVQLHSTDKVARLLDKGLDPNFHDPDSGECPLSLAAQLDNATDLLKVLRNGGAHLDFRTRDGLTAVHCATRQRNAGALTTLLDLGASPDYKDSRGLTPLYHSALGGGDALCCELLLHDHAQLGTTDENCWQEIHQACRFGHVQHLEHLLFYGANMGAQNASGNTALHICALYNQESCARVLLFRGANKDVRNYNSQTAFQVAIIAGNFELAEVIKTHK [chain 1 G250C] the figure was roughly 0.05; with chain 1 MDGPGASAVVVRVGIPDLQQTKCLRLDPTAPVWAAKQRVLCALNHSLQDALNYGLFQPPSRGRAGKFLDEERLLQDYPPNLDTPLPYLEFRYKRRVYAQNLIDDKQFAKLHTKANLKKFMDYVQLHSTDKVARLLDKGLDPNFHDPDSGECPLSLAAQLDNATDLLKVLRNGGAHLDFRTRDGLTAVHCATRQRNAGALTTLLDLGASPDYKDSRGLTPLYHSALGGGDALCCELLLHDHAQLGTTDENGWQEIHQACRFGHVQHLEHLLFYGANMGAQNASGNTALHICALYNQESCARVLLFRGANKDVRNYNSQTAFQVAIIAGNFELAEVIKSHK [chain 1 T337S], roughly 0.092.
With chain 1 MDGPGASAVVVRVGIPDLQQTKCLRLDPTAPVWAAKQRVLCALNHSLQDALNYGLFQPPSRGRAGKFLDEERLLQDYPPNLDTPLPYLEFRYKRRVYAQNLIDDKQFAKLHTKANLKKFMDYVQLHSTDKVARLLDKGLDPNFHDPDSGECPLSLAAQLDNATDLLKVLRNGGAHLDFRTRDGLTAVHCATRQRNAGALTTLLDLGASPDYKDSRGLTPLYHSALGGGDALCCELLLHDHAQLGTTDENGWQEIHQACRFGHVQHLEHLLFYGANMGAQNASGNTALHICALYNQESCARVLLFRGANKDVRNYNSRTAFQVAIIAGNFELAEVIKTHK [chain 1 Q317R] the figure was roughly 0.14.
As to chain 1 MDGPGASAVVVRVGIPDLQQTKCLRLDPTAPVWAAKQRVLCALNHSLQDALNYGLFQPPSRGRAGKFLDEERLLQDYPPNLDTPLPYLEFRYKRRVYAQNLIDDKQFAKLHTKANLKKFMDYVQLHSTDKVARLLDKGLDPNFHDPDSGECPLSLAAQLDNATDLLKVLRNGGAHLDFRTRDGLTAVHCATRQRNAGALTTLLDLGASPDYKDSRGLTPLYHSALGGGDALCCELLLHDHAQLGTTDENGWQEIHQACRFGHVQHLEHLMFYGANMGAQNASGNTALHICALYNQESCARVLLFRGANKDVRNYNSQTAFQVAIIAGNFELAEVIKTHK [chain 1 L270M], the response is roughly 0.066.
For the variant chain 1 MDGPGASAVVVRVGIPDLQQTKCLRLDPTAPVWAAKQRVLCALNHSLQDALNYGLFQPPSRGRAGKFLDEERLLQDYPPNLDTPLPYLEFRYKRRVYAQNLIDDKQFAKLHTKANLKKFMDYVQLHSTDKVARLLDKGLDANFHDPDSGECPLSLAAQLDNATDLLKVLRNGGAHLDFRTRDGLTAVHCATRQRNAGALTTLLDLGASPDYKDSRGLTPLYHSALGGGDALCCELLLHDHAQLGTTDENGWQEIHQACRFGHVQHLEHLLFYGANMGAQNASGNTALHICALYNQESCARVLLFRGANKDVRNYNSQTAFQVAIIAGNFELAEVIKTHK [chain 1 P141A], the response was roughly 0.022.

(Values after publication PMC8766471, “Mutations affecting the N-terminal domains of SHANK3 point to different pathomechanisms in neurodevelopmental disorders” (Scientific Reports, 2022).)
